{"source": "patent US20070292895", "key": {"[1]": {"target": "T1, coumarin-labeled 10-mer peptide substrate REVNFEVEFR", "T1 chain": "REVNFEVEFR"}, "[2]": {"target": "statine-Val (a peptide BACE-1 inhibitor)"}}}
{"protein": "mouse brain BACE-1 (MES membrane preparation from wild-type mice) (protein) ETDEESEEPGRRGSFVEMVDNLRGKSGQGYYVEMTVGSPPQTLNILVDTGSSNFAVGAAPHPFLHRYYQRQLSSTYRDLRKGVYVPYTQGKWEGELGTDLVSIPHGPNVTVRANIAAITESDKFFINGSNWEGILGLAYAEIARPDDSLEPFFDSLVKQTHIPNIFSLQLCGAGFPLNQTEALASVGGSMIIGGIDHSLYTGSLWYTPIRREWYYEVIIVRVEINGQDLKMDCKEYNYDKSIVDSGTTNLRLPKKVFEAAVKSIKAASSTEKFPDGFWLGEQLVCWQAGTTPWNIFPVISLYLMGEVTNQSFRITILPQQYLRPVEDVATSQDDCYKFAVSQSSTGTVMGAVIMEGFYVVFDRARKRIGFAVSACHVHDEFRTAAVEGPFVTADMEDCGYNIPQTDESTLMTIAYVMAAICALFMLPLCLMVCQWRCLRCLRHQHDDFADDISLLK", "values": [{"measurement": "hydrolysis of substrate (HPLC)", "setting": "[1]", "value": "hydrolysis was observed to be about 15% of total substrate that had been added in the reaction"}, {"measurement": "substrate cleavage (HPLC product peak), brain extract", "setting": "[2]", "value": "BACE-1 inhibitor's Stat(V) and Merck-3 led to complete abolition of substrate cleavage"}]}
